A word on the Kd: it is the equilibrium constant for the complex coming apart.

Where a chain is given by its changes, count along the chain named. Ends that are not written are not given here. * marks the point of attachment. FITC = O=C1OC2(c3ccc(O)cc3Oc3cc(O)ccc32)c2ccc(NC(=S)*)cc21

From patent US20260185163A1 (Dana-Farber, published 2026) come the findings set out here.

Common to all, as to experiment: fluorescence polarization; 1 nM FITC-MLL1 4-43(C-A) probe titrated with StrepII-Avi-TEV-Menin; one site total fit; mean±S.D., N=3
(In general: In fluorescence polarisation assays a small probe gives low polarisation when free and higher when bound to something large.)

In assay [1] the target is T1, StrepII-Avi-TEV-Menin (wild-type human Menin, recombinant, E. coli) (human, UniProt O00255 1-610).
T1 construct: also called WT Menin; WT-Menin
T1 sequence: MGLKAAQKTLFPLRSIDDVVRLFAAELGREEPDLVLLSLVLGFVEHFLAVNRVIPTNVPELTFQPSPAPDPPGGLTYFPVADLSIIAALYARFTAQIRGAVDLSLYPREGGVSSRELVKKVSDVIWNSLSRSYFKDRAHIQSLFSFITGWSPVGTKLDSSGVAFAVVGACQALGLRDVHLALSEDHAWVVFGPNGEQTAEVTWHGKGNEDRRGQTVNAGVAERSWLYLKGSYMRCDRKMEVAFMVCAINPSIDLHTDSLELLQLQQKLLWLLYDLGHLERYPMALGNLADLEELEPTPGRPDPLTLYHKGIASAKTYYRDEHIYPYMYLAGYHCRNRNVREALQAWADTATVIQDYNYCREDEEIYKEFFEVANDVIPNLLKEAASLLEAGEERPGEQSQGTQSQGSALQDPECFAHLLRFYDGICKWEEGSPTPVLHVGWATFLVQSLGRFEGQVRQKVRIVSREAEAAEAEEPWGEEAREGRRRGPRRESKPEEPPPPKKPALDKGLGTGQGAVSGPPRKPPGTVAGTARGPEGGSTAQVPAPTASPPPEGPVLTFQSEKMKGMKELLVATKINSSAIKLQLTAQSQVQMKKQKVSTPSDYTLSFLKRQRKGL
The procedure: (§1) To derive the FITC-MLL1₄₋₄₃(C-A) peptide Kd. FITC-conjugated MLL1₄₋₄₃(C-A) peptide probe at final concentration of 1 nM was mixed with increasing concentration of purified StrepII-Avi-TEV-Menin (5 μM final top concentration, 2-fold, 23-point dilution and a buffer control) in an assay buffer (50 mM Tris pH 7.5, 200 mM NaCl, 0.1% Pluronic F-68 solution (Sigma)) in 384-well microplates at 15 μL assay volume (Corning, 4514) and incubated for 30 min at room temperature (RT). For all assays change in fluorescence polarization was monitored using a PHERAstar FS microplate reader (BMG Labtech). […] In competitive titration experiments Menin proteins (1 nM WT, 1 nM M327I or 3 nM for T349M) and 1 nM FITC-conjugated MLL1₄₋₄₃(C-A) peptide probe were incubated in an assay buffer for 30 min. SNDX-5613 was then dispensed to 384-well microplate (Corning, 4514) containing 15 μL of the assay mix using D300e Digital Dispenser (HP) and normalized to 1% DMSO followed by 90 min incubation. The fluorescence polarization was monitored by PHERAstar FS microplate reader (BMG Labtech). The MLL1₄₋₄₃(WT) and MLL1₄₋₄₃(C-A) peptide titrations were performed by addition of 7.5 μL of 2-fold 23-point serial dilution into 7.5 μL of assay mix with the final concentrations of 1 nM FITC-conjugated MLL₄₋₄₃ peptide probe, 1 nM WT Menin or 1 nM Menin M327I or 3 nM Menin T349M in assay buffer. The fluorescence polarization was monitored by PHERAstar FS microplate reader (BMG Labtech). For analysis of the competitive titration experiments the last 10 cycles of the data were averaged to obtain technical replicates. Data from three independent replicates (n=3) was plotted and IC₅₀ values estimated using variable slope equation in GraphPad Prism 9. The calculation of Kᵢ values was performed using Kᵢ calculator available at websites.umich.edu/˜shaomengwanglab/software/calc_ki/index.html²³.

In assay [2] the target is T2, StrepII-Avi-TEV-Menin M327I (recombinant mutant human Menin) (human, UniProt O00255 1-610).
T2 construct: The mutant plasmid was made from the wild-type StrepII-Avi-TEV Menin construct; also called M327I-mutant Menin; M327I Menin
T2 sequence: T1 sequence with M327I
The protocol: as §1

For assay [3], the target named is T3, StrepII-Avi-TEV-Menin T349M (recombinant mutant human Menin) (human, UniProt O00255 1-610).
T3 construct: The mutant plasmid was made from the wild-type StrepII-Avi-TEV Menin construct; also called T349M-mutant Menin; T349M Menin
T3 sequence: T1 sequence with T349M
The procedure: as §1

B1: N-terminal FITC-conjugated MLL1 4-43(C-A) peptide probe (peptide)
peptide: {FITC}-SARWRFPARPGTTGGGGGGGRRGLGGAPRQRVPALLLPPGY
modifications: not fully specified
notes: also called FITC-MLL14-43(C-A) peptide; MLL1 peptide
B1: the Kd is 0.76 nM in assay [1], 0.91 nM in assay [2] and 2.99 nM in assay [3].
